Data published in article PMC6555819, “Comprehensive study of nuclear receptor DNA binding provides a revised framework for understanding receptor specificity”.

B1: NRC3_random_hg19_395_o1 (dsDNA)
DNA 1: GCGTACAATTGCCCTCTTAGCAGAGTTCTGGTGCATGCGATTGACAGCGTAGAATGAAGG
DNA 2: CCTTCATTCTACGCTGTCAATCGCATGCACCAGAACTCTGCTAAGAGGGCAATTGTACGC
B2: NRC3_random_hg19_232_o1 (dsDNA)
DNA 1: GCTTAGCAGGAACTGAGAAGTCACACTCAAGAGTTAGCGATTGACAGCGTAGAATGAAGG
DNA 2: CCTTCATTCTACGCTGTCAATCGCTAACTCTTGAGTGTGACTTCTCAGTTCCTGCTAAGC
B3: NRC3_random_hg19_36_o1 (dsDNA)
DNA 1: GCCAGGCAGTTTGCTTGAGCTCAGGAGTTCAAGACTGCGATTGACAGCGTAGAATGAAGG
DNA 2: CCTTCATTCTACGCTGTCAATCGCAGTCTTGAACTCCTGAGCTCAAGCAAACTGCCTGGC
B4: NRC3_random_hg19_148_o1 (dsDNA)
DNA 1: GCTGTGTCACCATGAGCAATCCAACCAGGCATCCCAGCGATTGACAGCGTAGAATGAAGG
DNA 2: CCTTCATTCTACGCTGTCAATCGCTGGGATGCCTGGTTGGATTGCTCATGGTGACACAGC
B5: NRC3_random_hg19_144_o1 (dsDNA)
DNA 1: GCCAGTGCTGGCGTCGTAGTGCTTGCCATAACAGAGGCGATTGACAGCGTAGAATGAAGG
DNA 2: CCTTCATTCTACGCTGTCAATCGCCTCTGTTATGGCAAGCACTACGACGCCAGCACTGGC
B6: NRC3_random_hg19_377_o1 (dsDNA)
DNA 1: GCTTTAGAAGAAAGGTTTCATTACTGAGAGCAGCCAGCGATTGACAGCGTAGAATGAAGG
DNA 2: CCTTCATTCTACGCTGTCAATCGCTGGCTGCTCTCAGTAATGAAACCTTTCTTCTAAAGC
B7: NRC3_wobSeed135_DR5_T8G_o1 (dsDNA)
DNA 1: GCCGAACGAGGTCATTGACAGGACAGTGAATAGTAAGCGATTGACAGCGTAGAATGAAGG
DNA 2: CCTTCATTCTACGCTGTCAATCGCTTACTATTCACTGTCCTGTCAATGACCTCGTTCGGC
B8: NRC3_wobSeed39_DR1_T8G_o1 (dsDNA)
DNA 1: GCCGAACGAGGTCAAAGGACAGTGAAAGGCGACGTAGCGATTGACAGCGTAGAATGAAGG
DNA 2: CCTTCATTCTACGCTGTCAATCGCTACGTCGCCTTTCACTGTCCTTTGACCTCGTTCGGC
B9: NRC3_random_hg19_295_o1 (dsDNA)
DNA 1: GCGAGGTTGCAGAGATGTTCTCACTAAACATTCGTTGCGATTGACAGCGTAGAATGAAGG
DNA 2: CCTTCATTCTACGCTGTCAATCGCAACGAATGTTTAGTGAGAACATCTCTGCAACCTCGC
B10: NRC3_wobSeed109_DR4_A8G_o1 (dsDNA)
DNA 1: GCCGTCCGAGGTCATAGGAGGTCAGTGAAGACAGATGCGATTGACAGCGTAGAATGAAGG
DNA 2: CCTTCATTCTACGCTGTCAATCGCATCTGTCTTCACTGACCTCCTATGACCTCGGACGGC
B11: NRC3_wobSeed140_DR5_T13C_o1 (dsDNA)
DNA 1: GCAGAATGAGGTCATACGTAGATCAGGGAAGAAAGTGCGATTGACAGCGTAGAATGAAGG
DNA 2: CCTTCATTCTACGCTGTCAATCGCACTTTCTTCCCTGATCTACGTATGACCTCATTCTGC
B12: NRC3_wobSeed18_DR0_C18T_o1 (dsDNA)
DNA 1: GCGATACAGGGTCAAGGTCAGAGTACGCGTATTGATGCGATTGACAGCGTAGAATGAAGG
DNA 2: CCTTCATTCTACGCTGTCAATCGCATCAATACGCGTACTCTGACCTTGACCCTGTATCGC
B13: NRC3_wobSeed87_DR3_T8A_o1 (dsDNA)
DNA 1: GCCGAACAAGGTCATCCAGGACAGTGAATACATTGAGCGATTGACAGCGTAGAATGAAGG
DNA 2: CCTTCATTCTACGCTGTCAATCGCTCAATGTATTCACTGTCCTGGATGACCTTGTTCGGC
B14: NRC3_wobSeed20_DR0_T13C_o1 (dsDNA)
DNA 1: GCAGAATGAGGTCAAGATCAGGGAAACAGAATACATGCGATTGACAGCGTAGAATGAAGG
DNA 2: CCTTCATTCTACGCTGTCAATCGCATGTATTCTGTTTCCCTGATCTTGACCTCATTCTGC
B15: NRC3_random_hg19_210_o1 (dsDNA)
DNA 1: GCATCATTTGCTCTGGGTGAAGCCAGCTACCATGTTGCGATTGACAGCGTAGAATGAAGG
DNA 2: CCTTCATTCTACGCTGTCAATCGCAACATGGTAGCTGGCTTCACCCAGAGCAAATGATGC
B16: NRC3_random_hg19_316_o1 (dsDNA)
DNA 1: GCCAAAGACAGCTTTGCAAGGCCACTTCTGTTTGCTGCGATTGACAGCGTAGAATGAAGG
DNA 2: CCTTCATTCTACGCTGTCAATCGCAGCAAACAGAAGTGGCCTTGCAAAGCTGTCTTTGGC
B17: NRC3_random_hg19_87_o1 (dsDNA)
DNA 1: GCGACTGCTTGCATCAGTCAAGGTTTGGGCAGTGAGGCGATTGACAGCGTAGAATGAAGG
DNA 2: CCTTCATTCTACGCTGTCAATCGCCTCACTGCCCAAACCTTGACTGATGCAAGCAGTCGC
B18: NRC3_random_hg19_345_o1 (dsDNA)
DNA 1: GCGCAGTGGGTGATGATGTCACTGGTTAACGTGGCTGCGATTGACAGCGTAGAATGAAGG
DNA 2: CCTTCATTCTACGCTGTCAATCGCAGCCACGTTAACCAGTGACATCATCACCCACTGCGC
B19: NRC3_random_hg19_296_o1 (dsDNA)
DNA 1: GCGGCCTATGGCTCCAGAATGCTAATGCTACTCTGCGCGATTGACAGCGTAGAATGAAGG
DNA 2: CCTTCATTCTACGCTGTCAATCGCGCAGAGTAGCATTAGCATTCTGGAGCCATAGGCCGC
B20: NRC3_wobSeed116_DR4_T13C_o1 (dsDNA)
DNA 1: GCAGAATGAGGTCACCAAAGATCAGGGAAACGCTTGGCGATTGACAGCGTAGAATGAAGG
DNA 2: CCTTCATTCTACGCTGTCAATCGCCAAGCGTTTCCCTGATCTTTGGTGACCTCATTCTGC
B21: NRC3_random_hg19_137_o1 (dsDNA)
DNA 1: GCCTCACGTGTTTCCTGGTAGAAATGCAGAGTACAAGCGATTGACAGCGTAGAATGAAGG
DNA 2: CCTTCATTCTACGCTGTCAATCGCTTGTACTCTGCATTTCTACCAGGAAACACGTGAGGC
B22: NRC3_random_hg19_488_o1 (dsDNA)
DNA 1: GCGGTTGCAGTGAGCTGAGATCACACCACTGCACTCGCGATTGACAGCGTAGAATGAAGG
DNA 2: CCTTCATTCTACGCTGTCAATCGCGAGTGCAGTGGTGTGATCTCAGCTCACTGCAACCGC
B23: NRC3_wobSeed13_DR0_G21A_o1 (dsDNA)
DNA 1: GCCGTCCAAGGTCAAGGTCAATGAAAGAGACTCGAAGCGATTGACAGCGTAGAATGAAGG
DNA 2: CCTTCATTCTACGCTGTCAATCGCTTCGAGTCTCTTTCATTGACCTTGACCTTGGACGGC
B24: NRC3_random_hg19_467_o1 (dsDNA)
DNA 1: GCGAAACTGCTGCAAAGGCCTACTGAAGCCTGACTGGCGATTGACAGCGTAGAATGAAGG
DNA 2: CCTTCATTCTACGCTGTCAATCGCCAGTCAGGCTTCAGTAGGCCTTTGCAGCAGTTTCGC

Biological target: FXR:RXRa (Homo sapiens, UniProt Q96RI1;P19793 full;full)
Sequence (Q96RI1 whole entry, chain 1 of 2): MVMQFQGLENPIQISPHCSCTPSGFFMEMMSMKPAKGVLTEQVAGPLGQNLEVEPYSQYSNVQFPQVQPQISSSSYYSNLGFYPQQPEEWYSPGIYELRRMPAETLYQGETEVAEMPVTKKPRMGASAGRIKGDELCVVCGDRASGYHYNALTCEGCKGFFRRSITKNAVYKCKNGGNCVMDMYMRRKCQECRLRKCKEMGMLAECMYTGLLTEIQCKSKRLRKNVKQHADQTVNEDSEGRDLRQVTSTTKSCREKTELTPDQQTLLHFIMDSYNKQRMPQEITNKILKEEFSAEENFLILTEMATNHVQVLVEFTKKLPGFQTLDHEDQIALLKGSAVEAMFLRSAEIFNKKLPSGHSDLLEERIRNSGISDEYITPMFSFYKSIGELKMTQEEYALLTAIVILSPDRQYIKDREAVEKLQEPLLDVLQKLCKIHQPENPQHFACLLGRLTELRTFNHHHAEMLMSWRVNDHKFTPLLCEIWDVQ
Sequence (P19793 whole entry, chain 2 of 2): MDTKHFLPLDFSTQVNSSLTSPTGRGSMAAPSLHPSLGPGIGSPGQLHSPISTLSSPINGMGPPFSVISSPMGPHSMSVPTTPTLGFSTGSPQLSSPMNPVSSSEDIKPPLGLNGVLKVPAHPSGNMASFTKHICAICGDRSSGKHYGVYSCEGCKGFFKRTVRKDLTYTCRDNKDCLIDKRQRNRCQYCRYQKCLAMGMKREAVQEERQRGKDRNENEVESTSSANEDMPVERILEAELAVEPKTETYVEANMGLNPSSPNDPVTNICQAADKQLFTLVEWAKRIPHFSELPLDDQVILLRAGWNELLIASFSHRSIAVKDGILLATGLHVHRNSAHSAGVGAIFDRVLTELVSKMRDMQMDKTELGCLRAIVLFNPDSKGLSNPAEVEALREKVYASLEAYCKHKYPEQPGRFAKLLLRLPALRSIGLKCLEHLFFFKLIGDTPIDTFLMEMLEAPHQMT
Test: no ligand; PBM; 270 nM : 90 nM RXRa; PBS pH 7.4, 2% milk, 0.02% Triton X-100, 1 mM DTT, BSA, 0.4 mg/ml salmon testes DNA
Conditions: tags: His kept;His cleaved; copies: 1;1; label: surface-attached array probe
Method in brief: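 Antibodies against each partner of ligand-free nuclear receptor dimers (one per run) detected binding on custom Agilent 4×180K protein-binding microarrays after 1 h incubation. The double-stranded probes had 34-nt variable regions carrying direct-repeat seeds, single-nucleotide variants, half-site ablations and random human genomic background sequences. Binding z-scores, from regression-normalized fluorescence, use the random background probes as reference.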

Binder	binding signal
B1	0.09 PBM z-score against 500 random probes
B2	-0.34 PBM z-score against 500 random probes
B3	-0.62 PBM z-score against 500 random probes
B4	-0.04 PBM z-score against 500 random probes
B5	-0.87 PBM z-score against 500 random probes
B6	-0.61 PBM z-score against 500 random probes
B7	7.83 PBM z-score against 500 random probes
B8	8.11 PBM z-score against 500 random probes
B9	0.03 PBM z-score against 500 random probes
B10	8.19 PBM z-score against 500 random probes
B11	8.1 PBM z-score against 500 random probes
B12	7.81 PBM z-score against 500 random probes
B13	8.1 PBM z-score against 500 random probes
B14	7.87 PBM z-score against 500 random probes
B15	-0.02 PBM z-score against 500 random probes
B16	-0.15 PBM z-score against 500 random probes
B17	-0.74 PBM z-score against 500 random probes
B18	-0.31 PBM z-score against 500 random probes
B19	-0.48 PBM z-score against 500 random probes
B20	7.91 PBM z-score against 500 random probes
B21	0.08 PBM z-score against 500 random probes
B22	-0.28 PBM z-score against 500 random probes
B23	8.19 PBM z-score against 500 random probes
B24	-0.59 PBM z-score against 500 random probes
